Assays:
[1] = molecular target: human TSH receptor (wild type), expressed on transfected CHO cells (human) (UniProt P16473); assay: cell-based or functional assay
[2] = molecular target: human TSH receptor (full length, wild type) expressed in CHO cells (human) (UniProt P16473); assay: cell-based or functional assay
[3] = molecular target: human TSHR (wild type, full length) expressed in CHO cells (human) (UniProt P16473); assay: cell-based or functional assay
[4] = molecular target: human TSHR expressed in CHO cells (human) (UniProt P16473); assay: cell-based or functional assay
[5] = molecular target: human TSH receptor (full length, wild type) expressed on CHO cells (human) (UniProt P16473); assay: cell-based or functional assay
TSHR260-AP (human) [6] = assay: TSHR260-AP bridge ELISA (full length TSHR on wells, TSHR260-AP in solution); IgG 0.05 µg/mL diluted in assay buffer
TSHR260-AP (human) [7] = assay: TSHR260-AP bridge ELISA (full length TSHR on wells, TSHR260-AP in solution); IgG 0.1 µg/mL diluted in assay buffer

Cyclic AMP concentration; 5C9 IgG 100 µg/mL + T11 [1]: 22.4 pmol/mL
Cyclic AMP concentration; 5C9 IgG 100 µg/mL alone [1]: 0.9 pmol/mL
Cyclic AMP concentration; pTSH 3 ng/mL + 0.001 µg/mL 5C9 [1]: 64.1 pmol/mL
Cyclic AMP concentration; pTSH 3 ng/mL + 0.01 µg/mL 5C9 [1]: 64.6 pmol/mL
Cyclic AMP concentration; pTSH 3 ng/mL + 0.1 µg/mL 5C9 [1]: 13.7 pmol/mL
Cyclic AMP concentration; pTSH 3 ng/mL + 1 µg/mL 5C9 [1]: 4.2 pmol/mL
Cyclic AMP concentration; pTSH 3 ng/mL + 10 µg/mL 5C9 [1]: 1.3 pmol/mL
Cyclic AMP concentration; pTSH 3 ng/mL + 100 µg/mL 5C9 [1]: 0.5 pmol/mL
Cyclic AMP production (constitutive activity); 0.1 µg/mL 5C9 IgG [1]: 68.2 pmol/mL
Cyclic AMP production (constitutive activity); 0.2 µg/mL 5C9 IgG [1]: 58.8 pmol/mL
Cyclic AMP production (constitutive activity); 1 µg/mL 5C9 IgG [1]: 31.4 pmol/mL
Cyclic AMP production (constitutive activity); 2 µg/mL 5C9 IgG [1]: 31.8 pmol/mL
% Inhibition; T1 serum + 100 µg/mL 5C9 IgG [2]: 98.7%
% Inhibition; T2 serum + 100 µg/mL 5C9 IgG [2]: 98.2%
% Inhibition; T3 serum + 100 µg/mL 5C9 IgG [2]: 97.8%
Cyclic AMP concentration; 100 µg/mL 5C9 IgG alone [2]: 1 pmol/mL
Cyclic AMP concentration; HBD + 100 µg/mL 5C9 IgG [2]: 0.9 pmol/mL
Cyclic AMP concentration; T1 serum + 100 µg/mL 5C9 IgG [2]: 1.3 pmol/mL
Cyclic AMP concentration; T2 serum + 100 µg/mL 5C9 IgG [2]: 1.1 pmol/mL
Cyclic AMP concentration; T3 serum + 100 µg/mL 5C9 IgG [2]: 1.4 pmol/mL
% Inhibition of T5 serum stimulation; 0.01 µg/mL 5C9 IgG [3]: 17.2%
% Inhibition of T5 serum stimulation; 0.1 µg/mL 5C9 IgG [3]: 91.2%
% Inhibition of T5 serum stimulation; 1 µg/mL 5C9 IgG [3]: 97.8%
% Inhibition of T5 serum stimulation; 10 µg/mL 5C9 IgG [3]: 98.9%
% Inhibition of T5 serum stimulation; 100 µg/mL 5C9 IgG [3]: 98.9%
Cyclic AMP concentration; 0.01 µg/mL 5C9 IgG + T5 [3]: 52.9 pmol/mL
Cyclic AMP concentration; 0.1 µg/mL 5C9 IgG + T5 [3]: 5.6 pmol/mL
Cyclic AMP concentration; 1 µg/mL 5C9 IgG + T5 [3]: 1.4 pmol/mL
Cyclic AMP concentration; 10 µg/mL 5C9 IgG + T5 [3]: 0.7 pmol/mL
Cyclic AMP concentration; 100 µg/mL 5C9 IgG + T5 [3]: 0.7 pmol/mL
Cyclic AMP concentration; 100 µg/mL 5C9 IgG alone [3]: 1.1 pmol/mL
% Inhibition; 5C9 IgG 0.003 µg/mL + 3 ng/mL pTSH [4]: 10.4%
% Inhibition; 5C9 IgG 0.0075 µg/mL + 3 ng/mL pTSH [4]: 76.5%
% Inhibition; 5C9 IgG 0.01 µg/mL + 3 ng/mL pTSH [4]: 1%
% Inhibition; 5C9 IgG 0.025 µg/mL + 3 ng/mL pTSH [4]: 26%
% Inhibition; 5C9 IgG 0.05 µg/mL + 3 ng/mL pTSH [4]: 62.8%
% Inhibition; 5C9 IgG 0.1 µg/mL + 3 ng/mL pTSH [4]: 81.8%
% Inhibition; 5C9 IgG 0.3 µg/mL + 3 ng/mL pTSH [4]: 87.5%
% Inhibition; 5C9 IgG 1 µg/mL + 3 ng/mL pTSH [4]: 92.3%
% Inhibition; 5C9 IgG 3 µg/mL + 3 ng/mL pTSH [4]: 92.8%
% Inhibition of M22 IgG (3 ng/mL) stimulation; 0.001 µg/ml 5C9 IgG [5]: 0%
% Inhibition of M22 IgG (3 ng/mL) stimulation; 0.01 µg/ml 5C9 IgG [5]: 0%
% Inhibition of M22 IgG (3 ng/mL) stimulation; 0.1 µg/ml 5C9 IgG [5]: 91.2%
% Inhibition of M22 IgG (3 ng/mL) stimulation; 0.5 µg/ml 5C9 IgG [5]: 97%
% Inhibition of M22 IgG (3 ng/mL) stimulation; 1 µg/ml 5C9 IgG [5]: 97.6%
% Inhibition of M22 IgG (3 ng/mL) stimulation; 5 µg/ml 5C9 IgG [5]: 99.4%
% Inhibition of M22 IgG (3 ng/mL) stimulation; 10 µg/ml 5C9 IgG [5]: 99.1%
% Inhibition of M22 IgG (3 ng/mL) stimulation; 50 µg/ml 5C9 IgG [5]: 99.1%
% Inhibition of M22 IgG (3 ng/mL) stimulation; 100 µg/ml 5C9 IgG [5]: 98.8%
Cyclic AMP concentration; 3 ng/mL M22 IgG + 0.001 µg/ml 5C9 IgG [5]: 39.3 pmol/mL
Cyclic AMP concentration; 3 ng/mL M22 IgG + 0.01 µg/ml 5C9 IgG [5]: 42.3 pmol/mL
Cyclic AMP concentration; 3 ng/mL M22 IgG + 0.1 µg/ml 5C9 IgG [5]: 2.9 pmol/mL
Cyclic AMP concentration; 3 ng/mL M22 IgG + 0.5 µg/ml 5C9 IgG [5]: 1 pmol/mL
Cyclic AMP concentration; 3 ng/mL M22 IgG + 1 µg/ml 5C9 IgG [5]: 0.8 pmol/mL
Cyclic AMP concentration; 3 ng/mL M22 IgG + 5 µg/ml 5C9 IgG [5]: 0.2 pmol/mL
Cyclic AMP concentration; 3 ng/mL M22 IgG + 10 µg/ml 5C9 IgG [5]: 0.3 pmol/mL
Cyclic AMP concentration; 3 ng/mL M22 IgG + 50 µg/ml 5C9 IgG [5]: 0.3 pmol/mL
Cyclic AMP concentration; 3 ng/mL M22 IgG + 100 µg/ml 5C9 IgG [5]: 0.4 pmol/mL
Cyclic AMP concentration; 5C9 IgG 100 µg/mL alone [5]: 0.5 pmol/mL
Mean absorbance at 405 nm (absorbance at 405 nm) (TSHR260-AP (human) [6]): -0.008
Mean absorbance at 405 nm (absorbance at 405 nm) (TSHR260-AP (human) [7]): -0.013
B1: 5C9 IgG (antibody, from another filing, V domains shown)
VH: EVQLVESGGGLIQPGGSLRLSCAASGFTVSSNYMSWVRQAPGKGLEWVSVTYSGGSTSYADSVKGRFTISRDNSKNTLYLQMNSLRAEDTAVYYCARGGRYCSSISCYARSGCDYWGQGTLVTVSS
VL: AIQMTQSPSSLSASVGDRVTITCRASQSISNYLNWYQQKPGKAPKLLIYAASSLQSGVPSRFSGSGSGTDFTLTISSLQPEDFATYYCQQSYSSPSTTFGQGTKLEIK
